“And” between values parts separate entries of the source, which are not always exact repeats. Equal entries are not always repeated.

Data set [1] addresses T1, MnmG from Escherichia coli, wild type (Escherichia coli, UniProt P0A6U3 1-629).
T1 construct: tRNA uridine 5-carboxymethylaminomethyl modification enzyme MnmG (formerly GidA), Escherichia coli; open reading frame cloned in a pET14b vector; Homodimer of 70-kDa subunits; also called GidA; MnmG wt
T1 sequence (looked up): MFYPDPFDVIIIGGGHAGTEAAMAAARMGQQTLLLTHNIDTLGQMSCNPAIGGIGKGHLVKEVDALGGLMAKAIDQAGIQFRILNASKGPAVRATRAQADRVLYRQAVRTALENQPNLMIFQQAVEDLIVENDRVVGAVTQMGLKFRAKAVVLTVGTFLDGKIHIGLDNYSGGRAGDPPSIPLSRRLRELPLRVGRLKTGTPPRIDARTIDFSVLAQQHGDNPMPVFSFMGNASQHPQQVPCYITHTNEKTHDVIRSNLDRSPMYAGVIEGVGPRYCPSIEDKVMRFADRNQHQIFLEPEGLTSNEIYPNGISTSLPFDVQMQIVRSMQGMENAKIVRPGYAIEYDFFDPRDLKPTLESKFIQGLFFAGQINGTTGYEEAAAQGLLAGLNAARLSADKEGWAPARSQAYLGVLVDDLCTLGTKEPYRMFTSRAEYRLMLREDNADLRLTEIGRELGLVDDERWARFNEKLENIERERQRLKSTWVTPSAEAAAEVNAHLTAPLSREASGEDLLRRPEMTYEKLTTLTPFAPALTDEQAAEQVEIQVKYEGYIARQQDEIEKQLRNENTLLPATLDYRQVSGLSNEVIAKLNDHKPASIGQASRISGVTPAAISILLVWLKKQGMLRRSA
Description: SAXS + SEC-MALS; E. coli MnmE and MnmG mixed equimolar without nucleotides, complex purified by gel filtration; SAXS with online HPLC; molecular weight from SAXS and SEC-MALS. The conditions noted are these: both partners purified.

For data set [2], the target named is T1, MnmG from Escherichia coli, wild type. Description: ITC; 278 K; 20 mM Hepes pH 7.5, 150 mM NaCl, 5 mM MgCl2, 2 mM BME, 1 mM FAD; 15 uM in the cell, 300 uM in the syringe; titrated in both directions; one site model; apparent. The conditions noted are these: both partners purified.
Data set [3] has the same target. Description: SAXS + SEC-MALS; MnmE-GDP-AlFx mixed in 2-fold molar excess with MnmG; SAXS with online HPLC; molecular weight from SAXS and SEC-MALS. The conditions noted are these: both partners purified.
Data set [4] deals with the molecule itself. In words: SAXS + SEC-MALS; E. coli MnmE without nucleotides; SAXS in batch mode, 20 mM Hepes pH 7.5, 150 mM KCl, 5 mM MgCl2, 2 mM DTT; molecular weight from SAXS and SEC-MALS.
Data set [5] has as its target T1, MnmG from Escherichia coli, wild type. In words: ITC; 278 K; 20 mM Hepes pH 7.5, 150 mM NaCl, 5 mM MgCl2, 2 mM BME, 1 mM FAD; variants: 700 uM MnmE in the syringe into 50 uM MnmG in the cell and vice versa; one site model; apparent. The conditions noted are these: both partners purified. A general note: In ITC the heat of successive injections is recorded.
The target is the same in data set [6]. In words: SEC; analytical gel filtration of 66.7 uM MnmE(E282A)-MnmG complex mixed with 100 uM GTP, aliquots between 0 min and 24 h; 20 mM Hepes pH 7.5, 150 mM KCl, 5 mM MgCl2, 2 mM DTT. The conditions noted are these: both partners purified. (SEC sorts molecules by how far they enter the pores of the column.)
Data set [7] concerns the molecule itself. Description: SEC-MALS + other: SAXS; A. aeolicus MnmG alone; SEC-MALS shows mainly monomer and a minor dimer peak; SAXS with online HPLC gel filtration on the dimer peak.

B1: MnmE from Escherichia coli, wild type (enzyme, UniProt P25522 1-454, looked up)
chain: MSDNDTIVAQATPPGRGGVGILRISGFKAREVAETVLGKLPKPRYADYLPFKDADGSVLDQGIALWFPGPNSFTGEDVLELQGHGGPVILDLLLKRILTIPGLRIARPGEFSERAFLNDKLDLAQAEAIADLIDASSEQAARSALNSLQGAFSARVNHLVEALTHLRIYVEAAIDFPDEEIDFLSDGKIEAQLNDVIADLDAVRAEARQGSLLREGMKVVIAGRPNAGKSSLLNALAGREAAIVTDIAGTTRDVLREHIHIDGMPLHIIDTAGLREASDEVERIGIERAWQEIEQADRVLFMVDGTTTDAVDPAEIWPEFIARLPAKLPITVVRNKADITGETLGMSEVNGHALIRLSARTGEGVDVLRNHLKQSMGFDTNMEGGFLARRRHLQALEQAAEHLQQGKAQLLGAWAGELLAEELRLAQQNLSEITGEFTSDDLLGRIFSSFCIGK
notes: tRNA modification GTPase MnmE (formerly TrmE), Escherichia coli; open reading frame cloned in a pET20 vector; Homodimer of about 50-kDa subunits; Used nucleotide-free, with GDP-AlFx or with GppNHp depending on the experiment; also called TrmE; MnmE wt
For the molecule B1, the stoichiometry N (as a rule, a count of units in the complex or per binding partner) in data set [1] turned out to be 1; in data set [2], 0.5; in data set [3], 2; in data set [4], 2. In data set [2], the Kd is 3 µM and 7 µM.

B2: MnmE (Y169A, D175A and F176A) with additional S153A (enzyme, Escherichia coli, UniProt P25522 1-454, looked up)
chain: MSDNDTIVAQATPPGRGGVGILRISGFKAREVAETVLGKLPKPRYADYLPFKDADGSVLDQGIALWFPGPNSFTGEDVLELQGHGGPVILDLLLKRILTIPGLRIARPGEFSERAFLNDKLDLAQAEAIADLIDASSEQAARSALNSLQGAFAARVNHLVEALTHLRIAVEAAIAAPDEEIDFLSDGKIEAQLNDVIADLDAVRAEARQGSLLREGMKVVIAGRPNAGKSSLLNALAGREAAIVTDIAGTTRDVLREHIHIDGMPLHIIDTAGLREASDEVERIGIERAWQEIEQADRVLFMVDGTTTDAVDPAEIWPEFIARLPAKLPITVVRNKADITGETLGMSEVNGHALIRLSARTGEGVDVLRNHLKQSMGFDTNMEGGFLARRRHLQALEQAAEHLQQGKAQLLGAWAGELLAEELRLAQQNLSEITGEFTSDDLLGRIFSSFCIGK
notes: MnmE, Escherichia coli, point variant made by QuikChange mutagenesis of the pET20 construct; Variant of m6 with Ser153 also changed to alanine
B2: the “fold decrease in apparent affinity against wild type” value in data set [5] was at most 10 fold.

B3: MnmE (E282A) (enzyme, Escherichia coli, UniProt P25522 1-454, looked up)
chain: MSDNDTIVAQATPPGRGGVGILRISGFKAREVAETVLGKLPKPRYADYLPFKDADGSVLDQGIALWFPGPNSFTGEDVLELQGHGGPVILDLLLKRILTIPGLRIARPGEFSERAFLNDKLDLAQAEAIADLIDASSEQAARSALNSLQGAFSARVNHLVEALTHLRIYVEAAIDFPDEEIDFLSDGKIEAQLNDVIADLDAVRAEARQGSLLREGMKVVIAGRPNAGKSSLLNALAGREAAIVTDIAGTTRDVLREHIHIDGMPLHIIDTAGLREASDEVARIGIERAWQEIEQADRVLFMVDGTTTDAVDPAEIWPEFIARLPAKLPITVVRNKADITGETLGMSEVNGHALIRLSARTGEGVDVLRNHLKQSMGFDTNMEGGFLARRRHLQALEQAAEHLQQGKAQLLGAWAGELLAEELRLAQQNLSEITGEFTSDDLLGRIFSSFCIGK
notes: MnmE, Escherichia coli, slowly GTP-hydrolysing point variant; Variant of m1; also called slow hydrolyzing mutant MnmE (E282A)
B3: the binding result in data set [6] was “binds”.

B4: MnmG from Aquifex aeolicus (enzyme, UniProt O66962 1-617, looked up)
chain: MAWVVDEFDVVVIGGGHAGIEAALAAARMGAKTAMFVLNADTIGQMSCNPAIGGIAKGIVVREIDALGGEMGKAIDQTGIQFKMLNTRKGKAVQSPRAQADKKRYREYMKKVCENQENLYIKQEEVVDIIVKNNQVVGVRTNLGVEYKTKAVVVTTGTFLNGVIYIGDKMIPGGRLGEPRSEGLSDFYRRFDFPLIRFKTGTPARLDKRTIDFSALEVAPGDDPPPKFSFWTEPVGSYWFPKGKEQVNCWITYTTPKTHEIIRKNLHRTALYGGLIKGIGPRYCPSIEDKIVKFPDKERHQIFLEPEGLDTIEIYPNGLSTSLPEEVQWEMYRSIPGLENVVLIRPAYAIEYDVVPPTELYPTLETKKIRGLFHAGNFNGTTGYEEAAGQGIVAGINAALRAFGKEPIYLRRDESYIGVMIDDLTTKGVTEPYRLFTSRSEYRLYIRQDNAILRLAKLGRELGLLSEEQYKLVKELEREIEKWKEFYKSERVSVAVGGDTRSYSVATLMTMNYTLDDVKEKFGYEVPQHPYVKEEVEIQLKYEPYIERERKLNEKLKKLEDTKIPPDIDYDKIPGLTKEAREKLKKFKPITVGQASRIDGITPAAITALLVYLGKLD
notes: tRNA uridine 5-carboxymethylaminomethyl modification enzyme MnmG, Aquifex aeolicus; open reading frame cloned in a pET28a vector; Mainly a monomer by SEC-MALS, with a minor dimer peak; SAXS was measured on the dimer peak; also called A. aeolicus MnmG; GidA
As to B4, the “stoichiometry N” value in data set [7] is 2.

These data come from PMC4027165, “SAXS analysis of the tRNA-modifying enzyme complex MnmE/MnmG reveals a novel interaction mode and GTP-induced oligomerization” (Nucleic Acids Research, 2014).
